# According to US20260167699A1 (Chugai, published 2026):
# Target: T1, FcγRIIIaV (human, UniProt P08637 17-208)
# T1 construct: extracellular domain
# Test: SPR (Biacore), antibody captured, FcγR as analyte, 1:1 Langmuir fit
# T1 sequence (P08637 other isoform, or with tags, fused parts or gaps): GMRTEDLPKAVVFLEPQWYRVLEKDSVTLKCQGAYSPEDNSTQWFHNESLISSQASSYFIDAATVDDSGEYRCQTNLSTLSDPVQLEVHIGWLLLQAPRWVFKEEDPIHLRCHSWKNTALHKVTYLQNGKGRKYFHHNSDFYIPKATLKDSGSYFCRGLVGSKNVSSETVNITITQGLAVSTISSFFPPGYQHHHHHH
row,Kd [nM],Binder
1,2.3,"HI076-L2-3 (antibody, human IgG1, kappa, heterodimerized anti-EREG antibody: altered H240-Hl076 chain (Gly/Ser peptide in loop) with H240-Kn125 and L73-k0; also called Hl076-L2-3) heavy 1: QDQLVQSGAEVKKPGASVKVSCKASGFNIKDTYIQWVRQAPGQGLEWMGRIDPLRKQTKYREKFEGRVTITADTSTNTAYMELSSLRSEDTAVYYCVRSGREFDYWGQGTLVTVSSASTKGPSVFPLAPSSKSTSGGTAALGCLVKDYFPEPVTVSWNSGALTSGVHTFPAVLQSSGLYSLSSVVTVPSSSLGTQTYICNVNHKPSNTKVDKKVEPKSCDKTHTCPPCPAPELLGGPSVFLFPPKPKDTLMISRTPEVTCVVVDVSHGGSEEPEVKFNWYVDGVEVHNAKTKPREEQYNSTYRVVSVLTVLHQDWLNGKEYKCKVSNDALPMPIEETISKAKGQPREPQVYTLPPSRCELTKNQVSLSCAVKGFYPSDIAVEWESNGQPENNYKTTPPVLDSDGSFFLVSKLTVDKSRWQQGNVFSCSVMHEALHNHYTQKSLSLSP heavy 2: QDQLVQSGAEVKKPGASVKVSCKASGFNIKDTYIQWVRQAPGQGLEWMGRIDPLRKQTKYREKFEGRVTITADTSTNTAYMELSSLRSEDTAVYYCVRSGREFDYWGQGTLVTVSSASTKGPSVFPLAPSSKSTSGGTAALGCLVKDYFPEPVTVSWNSGALTSGVHTFPAVLQSSGLYSLSSVVTVPSSSLGTQTYICNVNHKPSNTKVDKKVEPKSCDKTHTCPPCPAPEYQWGPMVFLFPPKPKDTLMISRTPEVTCVVVDVSDEEPEVKFNWYVDGVEVHNAKTKPREEQYNATYRVVSVLTVLHQDWLNGKEYKCKVSNKALPAPIEKTISKAKGQPREPQVCTLPPSRDELTKNQVSLWCLVKGFYPSDIAVEWESNGQPENNYKTTPPVLDSDGSFFLYSKLTVDKSRWQQGNVFSCSVMHEALHNHYTQKSLSLSP light: DIQMTQSPSSLSASVGDRVTITCRASQDIHKYIAWYQQKPGQAPRLLIQYTSTLQPGVPSRFSGSGSGTDYTFTISSLQPEDIATYYCLQYEQLRTFGGGTKVEIKRTVAAPSVFIFPPSDEQLKSGTASVVCLLNNFYPREAKVQWKVDNALQSGNSQESVTEQDSKDSTYSLSSTLTLSKADYEKHKVYACEVTHQGLSSPVTKSFNRGEC"
2,7.3,"HI076-L3-9 (antibody, human IgG1, kappa, heterodimerized anti-EREG antibody: altered H240-Hl076 chain (Gly/Ser peptide in loop) with H240-Kn125 and L73-k0; also called Hl076-L3-9) heavy 1: QDQLVQSGAEVKKPGASVKVSCKASGFNIKDTYIQWVRQAPGQGLEWMGRIDPLRKQTKYREKFEGRVTITADTSTNTAYMELSSLRSEDTAVYYCVRSGREFDYWGQGTLVTVSSASTKGPSVFPLAPSSKSTSGGTAALGCLVKDYFPEPVTVSWNSGALTSGVHTFPAVLQSSGLYSLSSVVTVPSSSLGTQTYICNVNHKPSNTKVDKKVEPKSCDKTHTCPPCPAPELLGGPSVFLFPPKPKDTLMISRTPEVTCVVVDVSHEEPEVKFNWYVDGVEVHNAKTKPREEQYNSTGGSGGSGGSYRVVSVLTVLHQDWLNGKEYKCKVSNDALPMPIEETISKAKGQPREPQVYTLPPSRCELTKNQVSLSCAVKGFYPSDIAVEWESNGQPENNYKTTPPVLDSDGSFFLVSKLTVDKSRWQQGNVFSCSVMHEALHNHYTQKSLSLSP heavy 2: QDQLVQSGAEVKKPGASVKVSCKASGFNIKDTYIQWVRQAPGQGLEWMGRIDPLRKQTKYREKFEGRVTITADTSTNTAYMELSSLRSEDTAVYYCVRSGREFDYWGQGTLVTVSSASTKGPSVFPLAPSSKSTSGGTAALGCLVKDYFPEPVTVSWNSGALTSGVHTFPAVLQSSGLYSLSSVVTVPSSSLGTQTYICNVNHKPSNTKVDKKVEPKSCDKTHTCPPCPAPEYQWGPMVFLFPPKPKDTLMISRTPEVTCVVVDVSDEEPEVKFNWYVDGVEVHNAKTKPREEQYNATYRVVSVLTVLHQDWLNGKEYKCKVSNKALPAPIEKTISKAKGQPREPQVCTLPPSRDELTKNQVSLWCLVKGFYPSDIAVEWESNGQPENNYKTTPPVLDSDGSFFLYSKLTVDKSRWQQGNVFSCSVMHEALHNHYTQKSLSLSP light: DIQMTQSPSSLSASVGDRVTITCRASQDIHKYIAWYQQKPGQAPRLLIQYTSTLQPGVPSRFSGSGSGTDYTFTISSLQPEDIATYYCLQYEQLRTFGGGTKVEIKRTVAAPSVFIFPPSDEQLKSGTASVVCLLNNFYPREAKVQWKVDNALQSGNSQESVTEQDSKDSTYSLSSTLTLSKADYEKHKVYACEVTHQGLSSPVTKSFNRGEC"
3,2.4,"HI076-L2-9 (antibody, human IgG1, kappa, heterodimerized anti-EREG antibody: altered H240-Hl076 chain (Gly/Ser peptide in loop) with H240-Kn125 and L73-k0; also called Hl076-L2-9) heavy 1: QDQLVQSGAEVKKPGASVKVSCKASGFNIKDTYIQWVRQAPGQGLEWMGRIDPLRKQTKYREKFEGRVTITADTSTNTAYMELSSLRSEDTAVYYCVRSGREFDYWGQGTLVTVSSASTKGPSVFPLAPSSKSTSGGTAALGCLVKDYFPEPVTVSWNSGALTSGVHTFPAVLQSSGLYSLSSVVTVPSSSLGTQTYICNVNHKPSNTKVDKKVEPKSCDKTHTCPPCPAPELLGGPSVFLFPPKPKDTLMISRTPEVTCVVVDVSHGGSGGSGGSEEPEVKFNWYVDGVEVHNAKTKPREEQYNSTYRVVSVLTVLHQDWLNGKEYKCKVSNDALPMPIEETISKAKGQPREPQVYTLPPSRCELTKNQVSLSCAVKGFYPSDIAVEWESNGQPENNYKTTPPVLDSDGSFFLVSKLTVDKSRWQQGNVFSCSVMHEALHNHYTQKSLSLSP heavy 2: QDQLVQSGAEVKKPGASVKVSCKASGFNIKDTYIQWVRQAPGQGLEWMGRIDPLRKQTKYREKFEGRVTITADTSTNTAYMELSSLRSEDTAVYYCVRSGREFDYWGQGTLVTVSSASTKGPSVFPLAPSSKSTSGGTAALGCLVKDYFPEPVTVSWNSGALTSGVHTFPAVLQSSGLYSLSSVVTVPSSSLGTQTYICNVNHKPSNTKVDKKVEPKSCDKTHTCPPCPAPEYQWGPMVFLFPPKPKDTLMISRTPEVTCVVVDVSDEEPEVKFNWYVDGVEVHNAKTKPREEQYNATYRVVSVLTVLHQDWLNGKEYKCKVSNKALPAPIEKTISKAKGQPREPQVCTLPPSRDELTKNQVSLWCLVKGFYPSDIAVEWESNGQPENNYKTTPPVLDSDGSFFLYSKLTVDKSRWQQGNVFSCSVMHEALHNHYTQKSLSLSP light: DIQMTQSPSSLSASVGDRVTITCRASQDIHKYIAWYQQKPGQAPRLLIQYTSTLQPGVPSRFSGSGSGTDYTFTISSLQPEDIATYYCLQYEQLRTFGGGTKVEIKRTVAAPSVFIFPPSDEQLKSGTASVVCLLNNFYPREAKVQWKVDNALQSGNSQESVTEQDSKDSTYSLSSTLTLSKADYEKHKVYACEVTHQGLSSPVTKSFNRGEC"
4,2.9,"HI076-L3-3 (antibody, human IgG1, kappa, heterodimerized anti-EREG antibody: altered H240-Hl076 chain (Gly/Ser peptide in loop) with H240-Kn125 and L73-k0; also called Hl076-L3-3) heavy 1: QDQLVQSGAEVKKPGASVKVSCKASGFNIKDTYIQWVRQAPGQGLEWMGRIDPLRKQTKYREKFEGRVTITADTSTNTAYMELSSLRSEDTAVYYCVRSGREFDYWGQGTLVTVSSASTKGPSVFPLAPSSKSTSGGTAALGCLVKDYFPEPVTVSWNSGALTSGVHTFPAVLQSSGLYSLSSVVTVPSSSLGTQTYICNVNHKPSNTKVDKKVEPKSCDKTHTCPPCPAPELLGGPSVFLFPPKPKDTLMISRTPEVTCVVVDVSHEEPEVKFNWYVDGVEVHNAKTKPREEQYNSTGGSYRVVSVLTVLHQDWLNGKEYKCKVSNDALPMPIEETISKAKGQPREPQVYTLPPSRCELTKNQVSLSCAVKGFYPSDIAVEWESNGQPENNYKTTPPVLDSDGSFFLVSKLTVDKSRWQQGNVFSCSVMHEALHNHYTQKSLSLSP heavy 2: QDQLVQSGAEVKKPGASVKVSCKASGFNIKDTYIQWVRQAPGQGLEWMGRIDPLRKQTKYREKFEGRVTITADTSTNTAYMELSSLRSEDTAVYYCVRSGREFDYWGQGTLVTVSSASTKGPSVFPLAPSSKSTSGGTAALGCLVKDYFPEPVTVSWNSGALTSGVHTFPAVLQSSGLYSLSSVVTVPSSSLGTQTYICNVNHKPSNTKVDKKVEPKSCDKTHTCPPCPAPEYQWGPMVFLFPPKPKDTLMISRTPEVTCVVVDVSDEEPEVKFNWYVDGVEVHNAKTKPREEQYNATYRVVSVLTVLHQDWLNGKEYKCKVSNKALPAPIEKTISKAKGQPREPQVCTLPPSRDELTKNQVSLWCLVKGFYPSDIAVEWESNGQPENNYKTTPPVLDSDGSFFLYSKLTVDKSRWQQGNVFSCSVMHEALHNHYTQKSLSLSP light: DIQMTQSPSSLSASVGDRVTITCRASQDIHKYIAWYQQKPGQAPRLLIQYTSTLQPGVPSRFSGSGSGTDYTFTISSLQPEDIATYYCLQYEQLRTFGGGTKVEIKRTVAAPSVFIFPPSDEQLKSGTASVVCLLNNFYPREAKVQWKVDNALQSGNSQESVTEQDSKDSTYSLSSTLTLSKADYEKHKVYACEVTHQGLSSPVTKSFNRGEC"
5,7.2,"HI076-L3-6 (antibody, human IgG1, kappa, heterodimerized anti-EREG antibody: altered H240-Hl076 chain (Gly/Ser peptide in loop) with H240-Kn125 and L73-k0; also called Hl076-L3-6) heavy 1: QDQLVQSGAEVKKPGASVKVSCKASGFNIKDTYIQWVRQAPGQGLEWMGRIDPLRKQTKYREKFEGRVTITADTSTNTAYMELSSLRSEDTAVYYCVRSGREFDYWGQGTLVTVSSASTKGPSVFPLAPSSKSTSGGTAALGCLVKDYFPEPVTVSWNSGALTSGVHTFPAVLQSSGLYSLSSVVTVPSSSLGTQTYICNVNHKPSNTKVDKKVEPKSCDKTHTCPPCPAPELLGGPSVFLFPPKPKDTLMISRTPEVTCVVVDVSHEEPEVKFNWYVDGVEVHNAKTKPREEQYNSTGGSGGSYRVVSVLTVLHQDWLNGKEYKCKVSNDALPMPIEETISKAKGQPREPQVYTLPPSRCELTKNQVSLSCAVKGFYPSDIAVEWESNGQPENNYKTTPPVLDSDGSFFLVSKLTVDKSRWQQGNVFSCSVMHEALHNHYTQKSLSLSP heavy 2: QDQLVQSGAEVKKPGASVKVSCKASGFNIKDTYIQWVRQAPGQGLEWMGRIDPLRKQTKYREKFEGRVTITADTSTNTAYMELSSLRSEDTAVYYCVRSGREFDYWGQGTLVTVSSASTKGPSVFPLAPSSKSTSGGTAALGCLVKDYFPEPVTVSWNSGALTSGVHTFPAVLQSSGLYSLSSVVTVPSSSLGTQTYICNVNHKPSNTKVDKKVEPKSCDKTHTCPPCPAPEYQWGPMVFLFPPKPKDTLMISRTPEVTCVVVDVSDEEPEVKFNWYVDGVEVHNAKTKPREEQYNATYRVVSVLTVLHQDWLNGKEYKCKVSNKALPAPIEKTISKAKGQPREPQVCTLPPSRDELTKNQVSLWCLVKGFYPSDIAVEWESNGQPENNYKTTPPVLDSDGSFFLYSKLTVDKSRWQQGNVFSCSVMHEALHNHYTQKSLSLSP light: DIQMTQSPSSLSASVGDRVTITCRASQDIHKYIAWYQQKPGQAPRLLIQYTSTLQPGVPSRFSGSGSGTDYTFTISSLQPEDIATYYCLQYEQLRTFGGGTKVEIKRTVAAPSVFIFPPSDEQLKSGTASVVCLLNNFYPREAKVQWKVDNALQSGNSQESVTEQDSKDSTYSLSSTLTLSKADYEKHKVYACEVTHQGLSSPVTKSFNRGEC"
